Measured values taken from paper PMC6212565, “Human antibodies targeting Zika virus NS1 provide protection against disease in a mouse model” (Nature Communications, 2018).

Molecular target: T1, recombinant NS1 protein from Zika virus MR766 (Zika virus MR766 (Rhesus/1947/Uganda))
T1 construct: also called MR766 NS1; NS1 from MR766; source: Expi293 cells transfected with pCAGGS-MR766-NS1, purified from the supernatant (Ni-NTA)
Test: ELISA; plates coated with recombinant ZIKV NS1 at 2 μg per mL in pH 9.41 carbonate buffer overnight at 4 °C; mAbs from 10 μg per mL, serially diluted 3-fold, 2 h at room temperature; detected with HRP-conjugated goat anti-human IgG
Details: both partners purified

B1: AA12 LALAPG (antibody, V domains shown)
VH: EVQLVESGGGLIQPGGSLRLSCAASGFTVSSNYMSWVRQAPGKGLEWVSVIYSGGSTYYADSVKGRFTISRDNSKNTLYLQMNSLRAEDTAVYYCARDRRGFDYWGQGTMVTVSS
VL: DIQMTQSPLSLSASVGDRVTITCRTSQSISSYLNWYQQKPGKAPKLLIYAASSLQSGVPSRFSGSGSGTDFTLTISSLQPEDFATYYCQQTYSTPLTFGGGTKVEIK
notes: also called mutated form of AA12; mutant AA12 mAb
- binding result: binds
